Results from the supplement of paper PMC7125110.
± gives the standard error. This sample holds only a part of the variants without activity.

B1: glmS ribozyme (parent)
chain: AUAAAAGCGCCAGAACUACAGAAAUGUAGUUGACGAGGAGGAGGUUUAUCGAAUUUUCGGCGGAUGCCUCCAAA

Variants of: B1
Assay: self-cleavage kobs at 2500 uM GlcN6P; higher = faster cleavage; RNA array
Details: with glucosamine-6-phosphate
Outline: (§1)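 kobs was derived by fitting per-tile medians to one- or two-exponential decays after normalising signals to baseline and to non-cleaving reference variants. Those signals came from barcoded ribozyme variants transcribed in situ by E. coli RNA polymerase on sequenced MiSeq chips, followed through a hybridised Cy3 probe at 37 °C and imaged over ~14 h. Glucosamine-6-phosphate (40 μM to 10 mM) in HEPES/KCl/Mg(OAc)2 buffer was flowed in. Weighted Michaelis–Menten fits across concentrations then gave kcat and KM.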

Variant	self-cleavage kobs at 2500 uM GlcN6P [s⁻¹]
AUAAAAGCGCCAGAACUACAGAAAUGUAUUUGACGAGGAGGAGGUUUAUCGAAUUAUCGGCGGAUGCUUCCAAA [G29U U56A C68U]	0.000413 ± 6.5e-05
AUAAAAGCGCCAGAACUACAGAAAUGUAUUUGACGAGUAGGAGGUUUAUCGAAUUUUCGGCGGAUUCAGCCAAA [G29U G38U G66U C68A U69G]	0.000147 ± 5.8e-05
AUAAAAGCGCCAGAACUACAGAAAUGUAGUAGAGGAGGAGGAGGUUUGUCGAAUUUUCGGCGGAUGCCUCCAAA [U31A C34G A48G]	< 1e-05
AUAAAAGCGCCAGAACUACAGAAAUGUAGGUUACGAGGAGGAGGUUUAUCGAAUUUUCGGCGGAUGCCUCCAAA [U30G G32U]	0.000223 ± 6.5e-05
AUAAAAGCGCCAGAACUACAGAAAUGUAUUUGACGAGGUGGAGGUUUAUCGAAUUUUCCGAGGAUGCCUCCAAA [G29U A39U G59C C61A]	< 1e-05
AUAAAAGCGCCAGAACUACAGAAAUGUAGCUGACGAGGAGGAGAUUUAUCGAAUUUUCGGCGGAUUCCUCCAAA [U30C G44A G66U]	< 1e-05
AUAAAAGCGCCAGAACUACAGAAAUGUAUUCGACGAGGAGGAGGUUUAUCGAACUUUCGGCGGAUGCCUCCAAA [G29U U31C U54C]	0.000161 ± 3.5e-05
AUAAAAGCGCCAGAACUACAGAAAUGUAGAUGACGAGGAGUAGGUUUAUCGAAUUUUCGGCGGAUGCCUGCAAA [U30A G41U C70G]	0.00387 ± 0.0011
AUAAAAGCGCCAGAACUACAGAAAUGUAGCUGACGAGGAGGAAGUGUAUCGAAUUUUCGGCGGAUGUCUCCAAA [U30C G43A U46G C67U]	< 1e-05
AUAAAAGCGCCAGAACUACAGAAAUGUAUUUGACGAGGUGGAGGUUUAUCGAAUUUUCGGCGGAUGGCUCCAAA [G29U A39U C67G]	0.00033 ± 9.8e-05
AUAAAAGCGCCAGAACUACAGAAAUGUAGAUCACGAGGAGGAGGUUUAUCGAAUUUUCGGCGGAUGCCUCCAAA [U30A G32C]	6.18e-05 ± 2.8e-05
AUAAAAGCGCCAGAACUACAGAAAUGUAUAUGGCGAUGAGGAGGUUUAUCGAAUUUUCGGCGGAUGCCUCCAAA [G29U U30A A33G G37U]	< 1e-05
AUAAAAGCGCCAGAACUACAGAAAUGUAGGUGACGAGGAGUAGUUUUAUCGAAUUUUCGGCGGAUGCCUCCAAA [U30G G41U G44U]	< 1e-05
AUAAAAGCGCCAGAACUACAGAAAUGUAUUUGACGACGAGGAGGUGUAUCGAAUUUUCGGCGGAUGCCUCCAAA [G29U G37C U46G]	< 1e-05
AUAAAAGCGCCAGAACUACAGAAAUGUAGGUGAAGAGGAGGAGGUUUAUCGAAUUUUCGGCGGAUGCUUCCAAA [U30G C34A C68U]	< 1e-05
AUAAAAGCGCCAGAACUACAGAAAUGUACUUGACGAGGAAGUGGUUUAUCGAAUUUUCGUUGGAUGCCUCCAAA [G29C G40A A42U G60U C61U]	< 1e-05
AUAAAAGCGCCAGAACUACAGAAAUGUAGGUGACGAGGAGGAGGUUUAUCGAAUUUUCGGCGGGUGGCUCCAAA [U30G A64G C67G]	6.44e-05 ± 3e-05

Variant	self-cleavage kobs at 2500 uM GlcN6P [s⁻¹]
AUAAAAGCGCCAGAACUACAGAAAUGUAGCUGACGAGUAGGCGGUUUAUCGAAUUUUCGGCGGAUGCCUCCAAA [U30C G38U A42C]	< 1e-05
AUAAAAGCGCCAGAACUACAGAAAUGUAGGUGACGAGGAGGAUGUUAAUCGAAUUAUCGGCGGAUGCCUCCAAA [U30G G43U U47A U56A]	< 1e-05
AUAAAAGCGCCAGAACUACAGAAAUGUAGCUGACGAGGAGGAGGUUUAUGGAAUUUUCGGCGCAUGCCUCCAAA [U30C C50G G63C]	0.00014 ± 5.2e-05
AUAAAAGCGCCAGAACUACAGAAAUGUAGAUGACGAGGGGGAGGUUUAUCGAAUUUUCGGCGGAUGCCUUCAAA [U30A A39G C70U]	0.00333 ± 0.00077
AUAAAAGCGCCAGAACUACAGAAAUGUAGAUGACGAGGAGGAUGUUUAUCGAAUUUUCGGAGGAUGCCUCUAAA [U30A G43U C61A C71U]	< 1e-05
AUAAAAGCGCCAGAACUACAGAAAUGUACUUGACGAGGAGGAGGUUUAUCGAAUUUUCUGCGGAUCCCUACAAA [G29C G59U G66C C70A]	0.000112 ± 2.7e-05
AUAAAAGCGCCAGAACUACAGAAAUGUAGGUGCCGAGGAGGAGGUUUAUCGAAUUUUCGGCGGAUUCCUCCAAA [U30G A33C G66U]	< 1e-05
AUAAAAGCGCCAGAACUACAGAAAUGUAUUUCACGAGGAGGAGGUUCAUCGAAUUUUCGGCGGAUGGCUCCAAA [G29U G32C U47C C67G]	< 1e-05
AUAAAAGCGCCAGAACUACAGAAAUGUAUUUGACGAGGAGGAGGUUUAUCGAAAUUUAGGCGGAUGCCUCCAAA [G29U U54A C58A]	0.000128 ± 3.8e-05
AUAAAAGCGCCAGAACUACAGAAAUGUAGCUGACGAGGAGGAGGUUUAUCGAAUUUUGGGCGGAUGCUUCCAAA [U30C C58G C68U]	0.000104 ± 2.9e-05
AUAAAAGCGCCAGAACUACAGAAAUGUAGCUGAGGAGGAGGAGCUUUAUCGAAUUUGCGGCGGAUGCCUUCAAA [U30C C34G G44C U57G C70U]	< 1e-05
AUAAAAGCGCCAGAACUACAGAAAUGUACUUUACGAGGAGGAGGUUUAUCGAAUUUUCGGCGGAUGACUCCAAA [G29C G32U C67A]	4.32e-05 ± 2e-05
AUAAAAGCGCCAGAACUACAGAAAUGUAGGUGAAGAGGAGGAGGUUUAUCGAAUUUUCGUCGGAUGCCUCCAAA [U30G C34A G60U]	< 1e-05
AUAAAAGCGCCAGAACUACAGAAAUGUAGAUCAGGAGGAGGAGGUUUAUCGAAUAUUCGGCGGAUGCCUCCAAA [U30A G32C C34G U55A]	< 1e-05
AUAAAAGCGCCAGAACUACAGAAAUGUAGGUGGCGAGGAGGGUGUUUAUCGAAUUUUCGGCGGAUGCCUACAAA [U30G A33G A42G G43U C70A]	< 1e-05
AUAAAAGCGCCAGAACUACAGAAAUGUAGGUGACGAGGAGGAGGUUUAUCGAAUUUACGGCGGAUGCCUCCAAA [U30G U57A]	4.22e-05 ± 1.5e-05

Variants of: B1
Assay: self-cleavage kobs at 10000 uM GlcN6P; higher = faster cleavage; RNA array
Details: with glucosamine-6-phosphate
Outline: as §1

Variant	self-cleavage kobs at 10000 uM GlcN6P [s⁻¹]
AUAAAAGCGCCAGAACUACAGAAAUGUAGGUUACGAGGAGGAGGUUUAUCGAAUUUUCGGCGGAUGCCUCCAAA [U30G G32U]	0.000612 ± 0.00015
AUAAAAGCGCCAGAACUACAGAAAUGUAGAUCACGAGGAGGAGGUUUAUCGAAUUUUCGGCGGAUGCCUCCAAA [U30A G32C]	0.000203 ± 5.8e-05
AUAAAAGCGCCAGAACUACAGAAAUGUACUUUACGAGGAGGAGGUUUAUCGAAUUUUCGGCGGAUGACUCCAAA [G29C G32U C67A]	0.00017 ± 2.6e-05
AUAAAAGCGCCAGAACUACAGAAAUGUAGGUGACGAGGAGGAGGUUUAUCGAAUUUACGGCGGAUGCCUCCAAA [U30G U57A]	8.3e-05 ± 1.8e-05
